In paper PMC8497506, “Modular fluorescent nanoparticle DNA probes for detection of peptides and proteins”:

Key:
[1] = biological target: T1, HHH peptide (synthetic); test: plate binding assay (ELONA); EC50, streptavidin conjugate; 10 mM HEPES, 1.2 mM NaCl (so in the source), 5 mM MgCl2, 5 mM KCl, pH 7.4, 0.1% Tween-20, 1% sheared salmon sperm DNA, 300 uM dextran sulfate; 60 min; temperature not stated; settings: tags: N-terminal Cys-biotin-PEG2; label: streptavidin conjugate
T1 chain: GHHHG

[2] = biological target: T1, HHH peptide; test: plate binding assay (ELONA); EC50, FluoSphere probe; 10 mM HEPES, 1.2 mM NaCl (so in the source), 5 mM MgCl2, 5 mM KCl, pH 7.4, 0.1% Tween-20, 1% sheared salmon sperm DNA, 300 uM dextran sulfate; 60 min; temperature not stated; settings: tags: N-terminal Cys-biotin-PEG2; label: fluorescent FluoSphere; 24 bp duplex of strand 1 5' end with handle; rest single-stranded aptamer
[3] = biological target: T2, Her2-his (UniProt P04626 23-652); test: plate binding assay (ELONA); EC50, FluoSphere probe, avidity; 10 mM HEPES, 1.2 mM NaCl (so in the source), 5 mM MgCl2, 5 mM KCl, pH 7.4, 0.1% Tween-20, 1% sheared salmon sperm DNA, 300 uM dextran sulfate; 60 min; temperature not stated; settings: protein: commercial; tags: His tag; label: fluorescent FluoSphere; 24 bp duplex of strand 1 5' end with handle; rest single-stranded aptamer
[4] = biological target: T2, Her2-his; test: plate binding assay (ELONA); EC50, Qdot core; 10 mM HEPES, 1.2 mM NaCl (so in the source), 5 mM MgCl2, 5 mM KCl, pH 7.4, 0.1% Tween-20, 1% sheared salmon sperm DNA, 300 uM dextran sulfate; 60 min; temperature not stated; settings: protein: commercial; tags: His tag; label: Qdot 655; 24 bp duplex of strand 1 5' end with handle; rest single-stranded aptamer
[5] = biological target: T2, Her2-his; test: plate binding assay (ELONA); about twofold lower than pre-annealed probe; 10 mM HEPES, 1.2 mM NaCl (so in the source), 5 mM MgCl2, 5 mM KCl, pH 7.4, 0.1% Tween-20, 1% sheared salmon sperm DNA, 300 uM dextran sulfate; 60 min; temperature not stated; settings: protein: commercial; tags: His tag; label: fluorescent FluoSphere
[6] = biological target: T1, HHH peptide; test: plate binding assay (ELONA); 10 mM HEPES, 1.2 mM NaCl (so in the source), 5 mM MgCl2, 5 mM KCl, pH 7.4, 0.1% Tween-20, 1% sheared salmon sperm DNA, 300 uM dextran sulfate; 60 min; temperature not stated; settings: tags: N-terminal Cys-biotin-PEG2; label: fluorescent FluoSphere; 24 bp duplex of strand 1 5' end with handle; rest single-stranded aptamer
[7] = biological target: VEGF (UniProt P15692-4 27-191); test: plate binding assay (ELONA); EC50, FluoSphere probe; 10 mM HEPES, 1.2 mM NaCl (so in the source), 5 mM MgCl2, 5 mM KCl, pH 7.4, 0.1% Tween-20, 1% sheared salmon sperm DNA, 300 uM dextran sulfate; 60 min; temperature not stated; settings: protein: commercial; chain copies: 2; label: fluorescent FluoSphere; 24 bp duplex of strand 1 5' end with handle; rest single-stranded aptamer
[8] = biological target: Myoglobin (UniProt P68082 2-154); test: plate binding assay (ELONA); off-target; 10 mM HEPES, 1.2 mM NaCl (so in the source), 5 mM MgCl2, 5 mM KCl, pH 7.4, 0.1% Tween-20, 1% sheared salmon sperm DNA, 300 uM dextran sulfate; 60 min; temperature not stated; settings: protein: commercial; label: fluorescent FluoSphere; 24 bp duplex of strand 1 5' end with handle; rest single-stranded aptamer
[9] = biological target: T1, HHH peptide; test: plate binding assay (ELONA); EC50, Streptavidin SureLight APC; 10 mM HEPES, 1.2 mM NaCl (so in the source), 5 mM MgCl2, 5 mM KCl, pH 7.4, 0.1% Tween-20, 1% sheared salmon sperm DNA, 300 uM dextran sulfate; 60 min; temperature not stated; settings: tags: N-terminal Cys-biotin-PEG2; label: streptavidin conjugates or HRP
[10] = biological target: T1, HHH peptide; test: plate binding assay (ELONA); EC50, Streptavidin AlexaFluor 647; 10 mM HEPES, 1.2 mM NaCl (so in the source), 5 mM MgCl2, 5 mM KCl, pH 7.4, 0.1% Tween-20, 1% sheared salmon sperm DNA, 300 uM dextran sulfate; 60 min; temperature not stated; settings: tags: N-terminal Cys-biotin-PEG2; label: streptavidin conjugates or HRP
[11] = biological target: T1, HHH peptide; test: plate binding assay (ELONA); EC50, Streptavidin APC; 10 mM HEPES, 1.2 mM NaCl (so in the source), 5 mM MgCl2, 5 mM KCl, pH 7.4, 0.1% Tween-20, 1% sheared salmon sperm DNA, 300 uM dextran sulfate; 60 min; temperature not stated; settings: tags: N-terminal Cys-biotin-PEG2; label: streptavidin conjugates or HRP
[12] = biological target: T1, HHH peptide; test: plate binding assay (ELONA); streptavidin conjugate; Fig. S4B legend calls it EC50; 10 mM HEPES, 1.2 mM NaCl (so in the source), 5 mM MgCl2, 5 mM KCl, pH 7.4, 0.1% Tween-20, 1% sheared salmon sperm DNA, 300 uM dextran sulfate; 60 min; temperature not stated; settings: tags: N-terminal Cys-biotin-PEG2; label: streptavidin conjugates or HRP

B1: Biotin-H3T (ssDNA)
DNA: GTTTGCCGGTGGGCAGGTTTAGGGTCTGCTCGGGATTGCGGAGGAACATGCGTCGCAAAC
modifications: 5' biotin
[1]
  apparent K (half saturation): 30 nM

B2: P7-B1 annealed to DBCO-P7 handle on nanoparticle (mixed)
DNA 1: CAAGCAGAAGACGGCATACGAGATCATGCTTCCCCAGGGAGATGGTTTGCCGGTGGGCAGGTTTAGGGTCTGCTCGGGATTGCGGAGGAACATGCGTCGCAAACGTGTAGATCTCGGTGGTCGCCGTATCATT
DNA 2: ATCTCGTATGCCGTCTTCTGCTTG
modifications: handle 3' iSp9-DBCO coupled to azide-PEG
[2]
  apparent K (half saturation): 2.7 nM
[3]
  apparent K (half saturation): 5.2 nM

B3: P7-B1 annealed to DBCO-P7 handle on Qdot 655 (mixed)
DNA 1: CAAGCAGAAGACGGCATACGAGATCATGCTTCCCCAGGGAGATGGTTTGCCGGTGGGCAGGTTTAGGGTCTGCTCGGGATTGCGGAGGAACATGCGTCGCAAACGTGTAGATCTCGGTGGTCGCCGTATCATT
DNA 2: ATCTCGTATGCCGTCTTCTGCTTG
modifications: handle 3' iSp9-DBCO coupled to azide-PEG
[4]
  apparent K (half saturation): 55 nM

B4: DBCO-B1 directly conjugated to nanoparticle (ssDNA)
DNA: CAAGCAGAAGACGGCATACGAGATCATGCTTCCCCAGGGAGATGGTTTGCCGGTGGGCAGGTTTAGGGTCTGCTCGGGATTGCGGAGGAACATGCGTCGCAAACGTGTAGATCTCGGTGGTCGCCGTATCATT
modifications: 5' DBCO-C7 coupled to azide-PEG
[5]
  binding result: binds

B5: H3T annealed to DBCO-P7 handle on nanoparticle (mixed)
DNA 1: CAAGCAGAAGACGGCATACGAGATGTTTGCCGGTGGGCAGGTTTAGGGTCTGCTCGGGATTGCGGAGGAACATGCGTCGCAAACGTGTAGATCTCGGTGGTCGCCGTATCATT
DNA 2: ATCTCGTATGCCGTCTTCTGCTTG
modifications: handle 3' iSp9-DBCO coupled to azide-PEG
[2]
  apparent K (half saturation): 12 nM

B6: Her2 aptamer annealed to DBCO-P7 handle on nanoparticle (mixed)
DNA 1: CAAGCAGAAGACGGCATACGAGATTCTAAAAGGATTCTTCCCAAGGGGATCCAATTCAAACAGCGTGTAGATCTCGGTGGTCGCCGTATCATT
DNA 2: ATCTCGTATGCCGTCTTCTGCTTG
modifications: handle 3' iSp9-DBCO coupled to azide-PEG
[6]
  binding result: no binding

B7: VEGF aptamer annealed to DBCO-P7 handle on nanoparticle (mixed)
DNA 1: CAAGCAGAAGACGGCATACGAGATCCCGTCTTCCAGACAAGAGTGCAGGGGTGTAGATCTCGGTGGTCGCCGTATCATT
DNA 2: ATCTCGTATGCCGTCTTCTGCTTG
modifications: handle 3' iSp9-DBCO coupled to azide-PEG
[7]
  apparent K (half saturation): 5.5 nM
[8]
  binding result: no binding

B8: Biotin-B1 (ssDNA)
DNA: CATGCTTCCCCAGGGAGATGGTTTGCCGGTGGGCAGGTTTAGGGTCTGCTCGGGATTGCGGAGGAACATGCGTCGCAAAC
modifications: 5' biotin
[9]
  apparent K (half saturation): 9.9 nM
[10]
  apparent K (half saturation): 43 nM
[11]
  apparent K (half saturation): 28 nM
[12]
  Kd: 55 nM
